In publication PMC7472703, “DNA methylation suppresses chitin degradation and promotes the wing development by inhibiting Bmara-mediated chitinase expression in the silkworm, Bombyx mori”:

Target: T1, Bmara (homeobox protein araucan) (Bombyx mori, UniProt A0A8R1WJM2 5-477)
T1 sequence: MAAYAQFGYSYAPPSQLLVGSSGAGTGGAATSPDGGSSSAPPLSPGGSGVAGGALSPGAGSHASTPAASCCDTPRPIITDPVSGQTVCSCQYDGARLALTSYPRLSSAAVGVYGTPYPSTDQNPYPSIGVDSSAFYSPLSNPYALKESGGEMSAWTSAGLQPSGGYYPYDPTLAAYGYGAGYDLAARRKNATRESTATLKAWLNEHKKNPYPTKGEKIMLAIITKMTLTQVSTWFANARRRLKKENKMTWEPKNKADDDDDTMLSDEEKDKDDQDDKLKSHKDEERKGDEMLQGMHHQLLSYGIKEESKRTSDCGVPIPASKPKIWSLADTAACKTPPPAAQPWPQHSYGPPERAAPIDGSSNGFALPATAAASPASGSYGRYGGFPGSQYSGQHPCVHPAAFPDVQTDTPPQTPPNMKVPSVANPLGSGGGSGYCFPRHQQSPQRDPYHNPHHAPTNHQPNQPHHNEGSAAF
Test: EMSA; 5 mM MgCl2, 4 mM EDTA; EMSA: 50 mM KCl, 5 mM MgCl2, 4 mM EDTA, 2.5% glycerol, 0.05% NP-40, 50 ng poly(dI-dC), 20 fmol probe, 20 uL, 20 min RT. Pull-down: 10 mM HEPES pH 7.6, 100 mM K
Conditions: protein: recombinant; tags: 6xHis (pET-28a/32a); label: 5' biotin; blunt

Binder | binding result
Wt CRE probe (BmCHT10 promoter -250 to -225; legend -250 to -221) (dsDNA) DNA 1: TTCAGTCCACGGCTGTCTTTCAACACGGA DNA 2: TCCGTGTTGAAAGACAGCCGTGGACTGAA | binds
Mut-CRE probe (dsDNA) DNA 1: TTCAGTCCACGGCGTGACTTTCGACCGGA DNA 2: TCCGGTCGAAAGTCACGCCGTGGACTGAA | no binding
